What was measured:
[1] = target: His-eTEV-Fn fusion protein, Ala mutant E2, P02751
[2] = target: His-eTEV-Fn fusion protein, Ala mutant M0, P02751
[3] = target: His-eTEV-Fn fusion protein, Ala mutant R1, P02751
[4] = target: His-eTEV-Fn fusion protein, Ala mutant L4, P02751
[5] = target: His-eTEV-Fn fusion protein, Ala mutant G8, P02751
[6] = target: His-eTEV-Fn fusion protein, Ala mutant K9, P02751
[7] = target: His-eTEV-Fn fusion protein, Ala mutant G11, P02751
[8] = target: His-eTEV-Fn fusion protein, Ala mutant Q7, P02751
[9] = target: His-eTEV-Fn fusion protein, Ala mutant Y5, P02751
[10] = target: His-eTEV-Fn fusion protein, Ala mutant N3, P02751
W tag fused GFPUV = target: T1, W tag fused GFPUV
T1 chain: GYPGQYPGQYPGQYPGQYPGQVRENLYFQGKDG

[11] = target: His-eTEV-Fn fusion protein, Ala mutant F6, P02751
[12] = target: His-eTEV-Fn fusion protein (wild type), P02751
[13] = target: His-eTEV-Fn fusion protein, Ala mutant D10, P02751
His-eTEV-Fn fusion protein, Ala mutant D10, P02751, sequence (P02751 whole entry, looked up, change not shown, the tested form may be a part): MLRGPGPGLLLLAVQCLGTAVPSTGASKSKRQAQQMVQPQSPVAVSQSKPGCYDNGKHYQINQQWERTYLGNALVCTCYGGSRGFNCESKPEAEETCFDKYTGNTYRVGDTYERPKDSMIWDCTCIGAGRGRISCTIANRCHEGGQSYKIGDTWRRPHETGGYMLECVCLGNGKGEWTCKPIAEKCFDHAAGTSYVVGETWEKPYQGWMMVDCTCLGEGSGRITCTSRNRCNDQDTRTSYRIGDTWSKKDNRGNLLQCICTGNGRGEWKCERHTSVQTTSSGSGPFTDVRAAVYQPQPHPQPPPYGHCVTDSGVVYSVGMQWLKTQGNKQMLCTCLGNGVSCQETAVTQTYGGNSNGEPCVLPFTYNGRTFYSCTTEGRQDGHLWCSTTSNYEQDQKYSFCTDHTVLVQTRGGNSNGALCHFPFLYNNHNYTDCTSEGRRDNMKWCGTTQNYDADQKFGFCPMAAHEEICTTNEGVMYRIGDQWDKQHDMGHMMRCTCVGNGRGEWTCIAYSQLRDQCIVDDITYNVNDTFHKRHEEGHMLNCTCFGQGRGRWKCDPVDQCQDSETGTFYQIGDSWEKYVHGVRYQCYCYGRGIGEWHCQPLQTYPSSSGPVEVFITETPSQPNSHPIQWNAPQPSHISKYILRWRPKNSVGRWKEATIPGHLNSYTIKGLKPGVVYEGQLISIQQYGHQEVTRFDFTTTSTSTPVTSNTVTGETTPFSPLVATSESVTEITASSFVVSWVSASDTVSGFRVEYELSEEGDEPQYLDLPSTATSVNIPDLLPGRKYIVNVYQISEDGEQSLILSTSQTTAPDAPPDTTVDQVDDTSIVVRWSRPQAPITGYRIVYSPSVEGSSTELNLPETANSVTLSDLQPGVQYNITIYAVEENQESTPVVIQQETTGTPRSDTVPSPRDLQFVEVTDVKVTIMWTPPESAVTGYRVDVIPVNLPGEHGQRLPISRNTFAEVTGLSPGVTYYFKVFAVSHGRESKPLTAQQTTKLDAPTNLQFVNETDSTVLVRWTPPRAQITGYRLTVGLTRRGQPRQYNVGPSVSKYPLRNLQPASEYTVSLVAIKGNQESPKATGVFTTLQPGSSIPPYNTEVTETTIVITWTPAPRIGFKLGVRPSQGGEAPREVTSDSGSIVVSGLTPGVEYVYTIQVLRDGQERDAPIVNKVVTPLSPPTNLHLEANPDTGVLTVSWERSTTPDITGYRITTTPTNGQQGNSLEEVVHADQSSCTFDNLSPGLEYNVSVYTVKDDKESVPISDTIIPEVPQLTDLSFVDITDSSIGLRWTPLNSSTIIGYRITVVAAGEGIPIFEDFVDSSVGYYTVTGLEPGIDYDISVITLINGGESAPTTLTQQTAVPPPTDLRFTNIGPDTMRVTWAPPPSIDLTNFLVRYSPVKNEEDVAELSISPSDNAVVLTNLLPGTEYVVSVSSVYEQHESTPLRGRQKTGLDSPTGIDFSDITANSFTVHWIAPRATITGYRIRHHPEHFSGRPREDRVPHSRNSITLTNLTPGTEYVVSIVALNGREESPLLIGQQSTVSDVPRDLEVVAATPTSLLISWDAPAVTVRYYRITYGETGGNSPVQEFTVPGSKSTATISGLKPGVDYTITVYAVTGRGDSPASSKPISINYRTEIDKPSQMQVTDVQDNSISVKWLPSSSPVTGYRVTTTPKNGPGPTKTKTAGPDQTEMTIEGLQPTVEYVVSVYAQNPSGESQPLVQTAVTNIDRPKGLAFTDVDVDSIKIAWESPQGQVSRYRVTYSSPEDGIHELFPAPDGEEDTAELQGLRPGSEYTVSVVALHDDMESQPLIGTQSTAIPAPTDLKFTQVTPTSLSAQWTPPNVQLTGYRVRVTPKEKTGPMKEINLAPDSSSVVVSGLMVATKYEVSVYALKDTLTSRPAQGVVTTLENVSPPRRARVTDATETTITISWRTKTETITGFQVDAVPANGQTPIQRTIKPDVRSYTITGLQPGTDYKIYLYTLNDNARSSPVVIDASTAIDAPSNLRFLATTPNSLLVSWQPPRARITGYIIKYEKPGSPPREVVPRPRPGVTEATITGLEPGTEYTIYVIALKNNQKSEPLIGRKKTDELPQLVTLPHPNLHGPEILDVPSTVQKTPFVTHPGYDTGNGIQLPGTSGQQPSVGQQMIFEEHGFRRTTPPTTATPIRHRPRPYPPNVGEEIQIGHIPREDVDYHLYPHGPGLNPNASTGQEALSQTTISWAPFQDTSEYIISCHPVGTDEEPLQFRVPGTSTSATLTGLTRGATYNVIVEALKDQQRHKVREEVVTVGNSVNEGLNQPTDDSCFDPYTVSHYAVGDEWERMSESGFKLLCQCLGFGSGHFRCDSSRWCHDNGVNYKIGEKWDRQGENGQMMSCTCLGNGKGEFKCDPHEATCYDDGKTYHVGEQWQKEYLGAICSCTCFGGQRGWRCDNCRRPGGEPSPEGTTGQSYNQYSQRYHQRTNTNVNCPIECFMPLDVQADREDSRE

His-eTEV-Fn fusion protein, Ala mutant M0, P02751, sequence (P02751 whole entry, looked up, change not shown, the tested form may be a part): as above
His-eTEV-Fn fusion protein, Ala mutant F6, P02751, sequence (P02751 whole entry, looked up, change not shown, the tested form may be a part): as above
His-eTEV-Fn fusion protein, Ala mutant Y5, P02751, sequence (P02751 whole entry, looked up, change not shown, the tested form may be a part): as above
His-eTEV-Fn fusion protein, Ala mutant R1, P02751, sequence (P02751 whole entry, looked up, change not shown, the tested form may be a part): as above
His-eTEV-Fn fusion protein, Ala mutant G11, P02751, sequence (P02751 whole entry, looked up, change not shown, the tested form may be a part): as above
His-eTEV-Fn fusion protein, Ala mutant Q7, P02751, sequence (P02751 whole entry, looked up, change not shown, the tested form may be a part): as above
His-eTEV-Fn fusion protein, Ala mutant E2, P02751, sequence (P02751 whole entry, looked up, change not shown, the tested form may be a part): as above
His-eTEV-Fn fusion protein, Ala mutant G8, P02751, sequence (P02751 whole entry, looked up, change not shown, the tested form may be a part): as above
His-eTEV-Fn fusion protein, Ala mutant L4, P02751, sequence (P02751 whole entry, looked up, change not shown, the tested form may be a part): as above
His-eTEV-Fn fusion protein, Ala mutant K9, P02751, sequence (P02751 whole entry, looked up, change not shown, the tested form may be a part): as above
His-eTEV-Fn fusion protein, Ala mutant N3, P02751, sequence (P02751 whole entry, looked up, change not shown, the tested form may be a part): as above
His-eTEV-Fn fusion protein (wild type), P02751, sequence (P02751 other isoform, or with tags, fused parts or gaps): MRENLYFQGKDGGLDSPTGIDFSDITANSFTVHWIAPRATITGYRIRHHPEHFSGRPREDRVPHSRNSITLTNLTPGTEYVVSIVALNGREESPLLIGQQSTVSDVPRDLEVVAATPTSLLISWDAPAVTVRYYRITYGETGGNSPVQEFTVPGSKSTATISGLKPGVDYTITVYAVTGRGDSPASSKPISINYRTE

B1: Tobacco etch virus (TEV) protease (protein)
chain: GESLFKGPRDYNPISSTICHLTNESDGHTTSLYGIGFGPFIITNKHLFRRNNGTLLVQSLHGVFKVKNTTTLQQHLIDGRDMIIIRMPKDFPPFPQKLKFREPQREERICLVTTNFQTKSMSSMVSDTSCTFPSSDGIFWKHWIQTKDGQCGSPLVSTRDGFIVGIHSASNFTNTNNYFTSVPKNFMELLTNQEAQQWVSGWRLNADSVLWGGHKVFMSKPEEPFQPVKEATQLMNELVYSQ
cleavage by TEV protease (SDS electrophoresis, 24 kDa to 20 kDa shift) [1]: substitution of Ala for Glu at residue 2 gives no significant change in cleavage
cleavage by TEV protease (SDS electrophoresis, 24 kDa to 20 kDa shift) [2]: the other residues are substitutable with Ala
cleavage by TEV protease (SDS electrophoresis, 24 kDa to 20 kDa shift) [3]: the other residues are substitutable with Ala
cleavage by TEV protease (SDS electrophoresis, 24 kDa to 20 kDa shift) [4]: the 4th, 5th and 7th amino acids (namely, Leu, Tyr and Gln) are essential for the substrate of TEV protease
cleavage by TEV protease (SDS electrophoresis, 24 kDa to 20 kDa shift) [5]: the other residues are substitutable with Ala
cleavage by TEV protease (SDS electrophoresis, 24 kDa to 20 kDa shift) [6]: the other residues are substitutable with Ala
cleavage by TEV protease (SDS electrophoresis, 24 kDa to 20 kDa shift) [7]: the other residues are substitutable with Ala
cleavage by TEV protease (SDS electrophoresis, 24 kDa to 20 kDa shift) [8]: the 4th, 5th and 7th amino acids (namely, Leu, Tyr and Gln) are essential for the substrate of TEV protease
cleavage by TEV protease (SDS electrophoresis, 24 kDa to 20 kDa shift) [9]: the 4th, 5th and 7th amino acids (namely, Leu, Tyr and Gln) are essential for the substrate of TEV protease
cleavage by TEV protease (SDS electrophoresis, 24 kDa to 20 kDa shift) [10]: the other residues are substitutable with Ala
cleavage by TEV protease (W tag fused GFPUV): the above-mentioned W tag fusion proteins, like single tag fusion proteins, can be used ... for cleavage by TEV protease
cleavage by TEV protease (W tag fused Fn, P02751): the above-mentioned W tag fusion proteins, like single tag fusion proteins, can be used ... for cleavage by TEV protease
cleavage by TEV protease (SDS electrophoresis, 24 kDa to 20 kDa shift) [11]: the other residues are substitutable with Ala
cleavage by TEV protease (SDS electrophoresis, 24 kDa to 20 kDa shift) [12]: The eTEV peptide is recognized and cleaved by TEV protease.
cleavage by TEV protease (SDS electrophoresis, 24 kDa to 20 kDa shift) [13]: the other residues are substitutable with Ala

Source: patent US20120052569
